# Data published in article PMC9712102, “Direct activation of a bacterial innate immune system by a viral capsid protein” (Nature, 2022).
# Molecular target: T1, CapRel^SJ46, purified full-length (Salmonella temperate phage SJ46)
# T1 construct: also called purified CapRel^SJ46; source: E. coli BL21 (DE3), pET24d-His10-SUMO-capRel^SJ46, purified (nickel resin, SEC, tag removed with Ulp1); not shown: His10, N-terminal, cleaved; SUMO, N-terminal, cleaved
# Test: ITC; CapRel^SJ46 (or variant) at 150 μM in the syringe titrated into Gp57 (or variant) at 10 μM in the cell; 25 °C; 50 mM HEPES pH 7.5, 500 mM KCl, 500 mM NaCl, 150 mM imidazole, 10 mM MgCl2, 1 mM TCEP, 0.002% mellitic acid
# Details: both partners purified
binder,measurement,value
"Gp57, purified (natural protein) MAKKYDELDATIVANHLQIQGVKTDASDMGIWTAQELHKIRSTAYEKEYPAGSALRVFPVTNELSDTDKTFEYQTFDKVGYAKIIADYTDDLPTVDALMTSEFGKVFRLGNAFLISIDEIKAGQRTGKSLSTRKANAAQNAHDQLINFLVFKGSKPHKIVSVFDHPNLTKIVSKGWMSQDGNTKFPDVASDELEAAIETIEEVTKGQHRATNILIPPSMRKVLTVRMENTTESYLEYFQKQNGGITIDSIAELEDIDGKGTKGCLVYEKDPMNMSIEIPEAFNMLPAQPKDLHFKVPCTSKCTGLTIYRPFTMVLITGLKKSV",Kd,350 nM
